According to the DeepSol protein solubility set:

Assay: soluble on expression in E. coli; label from the status in PepcDB or PDB records

Sequence | soluble on expression in E. coli
MGHHHHHHSHQMVNQQQNKFDLRPLMEAVDTVKQKITLLENNDQRLAVLEEETNKHDTHINIHKAQLSKNEERFKLLEGTCYNGKLIWKVTDYKMKKREAVDGHTVSIFSQSFYTSRCGYRLCARAYLNGDGSGRGSHLSLYFVVMRGEFDSLLQWPFRQRVTLMLLDQSGKKNIMETFKPDPNSSSFKRPDGEMNIASGCPRFVAHSVLENAKNAYIKDDTLFLKVAVDLTDLEDL | not soluble
RSSLDLQLKNARNLAGLIIHDIDGYMMKGDSSEVDRFISAVKSKNFIMDLRVFDEQAKEVSPTPSQTPNAKIQQAIAAGRTLEFKETLDGKRTLSLVLPFPNEQRCQSCHDAGAAYLGGLLVTTSIEEGYEGARH | soluble
ATITIETCEDPGDWTAAIGDDTFTFWRGLKDAGLLDEVIQEFHQELVETMRGLQQRVQDPPLQLRDAVLLNNIVQNFGMLDLVKKVLASHKCQMDRSREQYARDLAAL | soluble
MAHHHHHHMPTSSGVDQAKLREVIRVLKSVGHVGMAESLEVEWGMKPNTAAHAKNAKKGRKSLPHKSRESSKARGNSFPSLSSIAVAPSPLQVTSQSRFVVTCIGDEEDLWSPDEDPADAKRCIAPLFDYGAGLLRDHYAEYAAHPVSFVSVHPYEKQQPPSNLPWRHFELKVFYEAGKTGSEEKKEFELVKGDLIGGRYHVDAPIDAATFSRTVRCYDEQTGQPVCLKIIRNSKTFLDQGLDELRALTCVNDAGDADACCVVRLLDYFYFREHLVLVTELLFDNLYEYARKLDIVERCAYFTLARLQRIVRQVLTALKLIHSVNLIHCDIKPENIAFKSVSDCDVKVLDLGSSCYMTDTLSSYVQSRSYRAPEVILGCKYGPAVDIWSLGATAAELATGTVLFNVESVPTMLASIASVCGPIPAEMLQEGRNTSLYVTQHGAFYDYEDEQLVFHFPSEPPDAAVLFGFDDHDYVDFVRLCLTLDAALRPSAAQLLDHPFLTKTYTD | not soluble
MNPQTDNVFYATNAFTGEALPLAFPVHTEVEVNQAATAAAKVARDFRRLNNSKRASLLRTIASELEARSDDIIARAHLETALPEVRLTGEIARTANQLRLFADVVNSGSYHQAILDTPNPTRAPLPKPDIRRQQIALGPVAVFGASNFPLAFSAAGGDTASALAAGCPVIVKGHTAHPGTSQIVAECIEQALKQEQLPQAIFTLLQGNQRALGQALVSHPEIKAVGFTGSVGGGRALFNLAHERPEPIPFYGELGAINPTFIFPSAMRAKADLADQFVASMTMGCGQFCTKPGVVFALNTPETQAFIETAQSLIRQQSPSTLLTPGIRDSYQSQVVSRGSDDGIDVTFSQAESPCVASALFVTSSENWRKHPAWEEEIFGPQSLIVVCENVADMLSLSEMLAGSLTATIHATEEDYPQVSQLIPRLEEIAGRLVFNGWPTGVEVGYAMVHGGPYPASTHSASTSVGAEAIHRWLRPVAYQALPESLLPDSLKAENPLEIARAVDGKAAHS | soluble
MAHHHHHHMRGQRSGKFAEYTATYAILKRIGLHQTVLIEKRDASVGYGVYVRDACDSGTPLLVVPSRHAFSLSTVQKLGARVRQEDLMQSPQLEILNRGVLSRLLGCTAGEWISLAWRLAIEHQRSLSPWWGWLNVLPRMQDFRTMEDESGRQCRLHRVQLLPYFIEVQGSMQEEICSAYEVLSEKNLMPSPNHFRWAVDVILTRSHRLPACWTNGEGSSVELGIIPFVDLVNGDDGGERRRNARVEVAFEVEELPRWYRDEFLQESERRHVNGEEALRRLLEEHFFALVALERDLTASEEVIMEYELVPWVTGALSHEDDLLLGRLLRYRF | not soluble
MSLQEGQNRKTSSLSILAIAGVEPYQEKPGEEYMNEAQLSHFKRILEAWRNQLRDEVDRTVTHMQDEAANFPDPVDRAAQEEEFSLELRNRDRERKLIKKIEKTLKKVEDEDFGYCESCGVEIGIRRLEARPTADLCIDCKTLAEIREKQMAGEGGSHHHHHH | soluble
AAKVHVDIEADSPFIKSLQKAFPSFEVESLQVTPNDHANARAFSHLATKLIEQETDKDLILDIGSAPSRRMMSTHKYHCVCPMRSAEDPERLDSYAKKLAAASGKVLDREIAGKITDLQTVMATPDAESPTFCLHTDVTCRTAAEVAVYQDVYAVHAPTSLYHQAMKGVRTAYWIGFDTTPFMFDALAGAYPTYATNWADEQVLQARNIGLCAASLTEGRLGKLSILRKKQLKPCDTVMFSVGSTLYTESRKLLRSWHLPSVFHLKGKQSFTCRCDTIVSCEGYVVKKITMCPGLYGKTVGYAVTYHAEGFLVCKTTDTVKGERVSFPVCTYVPSTICDQMTGILATDVTPEDAQKLLVGLNQRIVVNGRTQRNTNTMKNYLLPIVAVAFSKWAREYKADLDDEKPLGVRERSLTCCCLWAFKTRKMHTMYKKPDTQTIVKVPSEFNSFVIPSLWSTGLAIPVRSRIKMLLAKKTKRELIPVLDASSARDAEQEEKERLEAELTREALPPLVPIAPAETGVVDVDVEELEYHAGA | not soluble
MAHHHHHHMLIPVRCYSCGKVVGHLYELYQELLNQDHTEAEALNALRLSRMCCRRMILSHIDLADDLLPYSVPVVGSMPLINPVQGPVPRRQ | not soluble
KTKLNITMEEDTEVLDEVVVVGYGAQKKESVVGAISQVSSKELLKSPAANISQAIAGKISGVITSQTSGAPGADDMKIYIRGRASFAGDNQPLILVDGVEREFSQIAPDDIESISTLKDASATAVYGVRGANGVMLITTKRGKEQK | not soluble
MGSDKIHHHHHHMETVNILGTGSAMVTKCYNTCFTLSNGDEHFLVDTGGGNTILTNLEKLHIGIDKIHNVFISHRHNDHITGIIWIIRAVAQRIINGKYDGDLKIYCCKENIEVINTICKLLLEKKFTKYMGNRIVFSEIYDGCRLKVLDWDIEFFDIKSTKQLQFGFTTVLKSGKKLTFLGDEPYRENLYEYANNSDYIFHEAFCLYSEKDIFKPYEKHHATVKDACENADKLSVKNIILYHTEDKNIEKRKELYIGEGSKFFKGNIIVPDDLETIELK | not soluble
GSHMNPLASLTTDKNDLYINWLKSLSFFQTNSSCAEALVKVIPHYHNKLIDFSQVLQLVFSASEKFPIQENQPLPEQLMFLSNLEKQTPFAKAVGSSIYKLVTGKNLSLDFASQILKEASILEH | soluble
MIDMTMKVGFIGLGIMGKPMSKNLLKAGYSLVVADRNPEAIADVIAAGAETASTAKAIAEQCDVIITMLPNSPHVKEVALGENGIIEGAKPGTVLIDMSSIAPLASREISEALKAKGIDMLDAPVSGGEPKAIDGTLSVMVGGDKAIFDKYYDLMKAMAGSVVHTGEIGAGNVTKLANQVIVALNIAAMSEALTLATKAGVNPDLVYQAIRGGLAGSTVLDAKAPMVMDRNFKPGFRIDLHIKDLANALDTSHGVGAQLPLTAAVMEMMQALRADGLGTADHSALACYYEKLAKVEVTR | not soluble
MGSDKIHHHHHHMCVEGLTSSGSVNWHDAWLTLSDGVKLVARLWIPKGEGPWPALVMRQPYGRALASTVTYIHPGWWASHGYLVVVQDVRGQGDSEGHFNGFLQEASDTSQTHAWVRELPECNGRLGTYGFSYQGLTQLLAEPGTPPPDCLAPAMAGVDERNHWSCEGGAHWWHLGLAWGLQLAALQARRCGNWEAWRELRRSLEDDSYLYEGPALLKRHDPDGMSFRWLHQANQNDHGWVVHKPLDSWLRQPMLLLGGWWDPHLNGLLDLYQRSSQVGGSPELHIGPATHLQWWPDAQQLQLEFFDRHLKSSKALTNSRPHGRIWNITSCSWQTFASPTQTTTSANASWSLVSGGMACLDPSEGTLHQNKKGGGVVYVVHDPWRPVQSVGGHLSPKPGVAERSALDQRADVATFTSTALQEPLQLNGIPLLQLTVQSDQPGFDLCVALSIVNCNHSEVKQLSTGFLRVQGEQALRMLPRKVKLQPILADLERGEHLRLSLAGAAWPAIGVNPGHDRHPCGPPGPHCQVVTMTLQLNGSKLRFLSWNSGKIDFDLPQEF | not soluble
MGSDKIHHHHHHMAHHHGMRFPTPLIPATLIKRYKRFLADCRLEDGREITAHCANPGSMMGLAEPGMRVWLEPNDDPKKKLKYGWRLVEHTNGHFTGVDTSVPNRALKAALEAHEIAEFAAYSEVQAEVKYGQNSRIDFLLTDAKLPRCYVEVKSVTLSRQPGLAEFPDSVTARGTKHLRELAAMAEAGHRAVMLYLVQRTDCDRFALAADIDPAYAAEFETAHAKGVERLVIGTTITPEGVKIGDILPS | not soluble
MQTSPLLTQLMEALRCLPGVGPKSAQRMAFTLLQRDRSGGMRLAQALTRAMSEIGHCADCRTFTEQDVCNICSNPRRQENGQICVVESPADIYAIEQTGQFSGRYFVLMGHLSPLDGIGPDDIGLDRLEQRLASEKISELILATNPTVEGEATANYIAELCAEAGVEASRIAHGVPVGGELEMVDGTTLSHSLAGRHKIIF | not soluble
MGSDKIHHHHHHMVKGLRQLNNRVDILSLPGAEPEVEEAKAIDEKVNQPPTKKSSFSILSDLTKHVPEFVFELFELAFNLIAVIRLRKTVKEKNITLIYERYSLFMFASVWWAKRHNLPIVLEINDSCQVQRVRSLTFKKLAAKIEGWIFKNATGLVFISTRFKEVAEQAYGEISNSVVSPNGADLDKFIIDETSGLALRSKLGVENKIVLGYVGAFVHWHGIDWFVDLACQKLKETPELVLLLVGDGVAFEGIKKRVIEAGVESQVILPGKVPHHEVSSFLSAMDLGILPDSNDYGSPMKLFEFMAMGKGMIAPDFSPIAEVVQDNATSWLFPASNKQACIDKVFEIVNDREAHQEVGKKARAYIENERQWKHNAEQLLSLVTAREKA | not soluble
MKQKRLTFLLLLISNLFCASAQKWYKPEIDLKVEELLSQMTVEEKLGYIGGIDWMYTKSIDRLGIHRMRMSDGPQGIGTKGKSTAYPATVTLAATWNENLAYQYGKALGRDCRARNINVILGPAVNIYRAPMCGRNFEYMGEDPYLTSRICVGYIKGVQDQGVMATVKHFVANNSDYDRNNISNDIDERTLNEIYFPAYKAAIQEAEVGAIMTSYNLMNGIYTTENPWLLKEVLRNQWGFKGLVMSDWGSTHYCVPAARSGLDLEMAGGEKMNPKDMAYYLKTGDVTMDMVDEKVRHILRILIAFGFKDGTEADKSIALDDPQSVETA | not soluble
MRTLRIAQYSVLTVGFAIYMYRLIEEIPIDIRNLNSDSLEGIINSDELCDVTVSNRNRGLLVRNDSLDLDILKAKFTTFFSKR | not soluble
QEDVTVKSVTLITKVFPEGEKVCAVVIEYPVEIDGQKLSPDQFSVKVKTGDTYSSRTITKVYANNSGGLSFSIFNNRGKYVVLELSTEDLHSNTIVFGPNFLNTRMKLDYIVSQLVPIFDVDGNEVEPFTSKQTDEKHLIIDDFLAFTFKDPETGVEIPYRLFVPKDVNPDRKYPLVVFLHGAGERGTDNYLQVAGNRGAVVWAQPRYQVVHPCFVLAPQCPPNSSWSTLFTDRENPFNPEKPLLAVIKIIRKLLDEYNIDENRIYITGLSMGGYGTWTAIMEFPELFAAAIPICGGGDVSKVERIKDIPIWVFHAEDDPVVPVENSRVLVKKLAEIGGKVRYTEYEKGFMEKHGWDPHGSWIPTYENQEAIEWLFEQSR | soluble
MKIAVDAMGGDNAPQAIVEGVMLAKQDFPDIEFQLYGKEAEIKKYITDEKNITIIHTDEKIASDDEPVKAIRRKKTASMVLAAQAVKNGEADAIFSAGNTGALLAAGLFIVGRIKNVERPGLMSTLPVMGEPDKGFDMLDLGANADNKPEHLVQYAVLGSFYAEKVRNVQNPRVGLLNNGTEETKGSELTKKAFELLAADETINFVGNVEARELLNGVADVVVTDGFTGNAVLKSIEGTAMNMMSLLKTAILSEGVKGKMGALLLKNALHGMKDEMDYSKHGGAVLFGLKAPVIKTHGATGPDAVRYTIRQIHTMLETQVVPQLVEYYEGKAE | soluble
